The target of test [1] is GFP-250, a chimera of GFP with the cytosolic protein p115. As to the kind of experiment: co-IP.
Test [2] addresses recombinant GRP78 (19-654) Cys41 to Ala mutant (human, UniProt P11021 19-654, Cys41 (Cys to Ala)). The test can be described thus: cross-linking.
Test [3] deals with recombinant GRP78 (19-654) Cys420 to Ala mutant (human, UniProt P11021 19-654, Cys420 (Cys to Ala)). As to the kind of experiment: cross-linking.

“GRP78 (glucose-regulated protein 78), endogenous in mouse embryonic fibroblasts (from UniProt P20029 20-655) (natural protein)” had a fold more GFP-250 interacting with GRP78 in WT MEFs than in NPGPx-/- MEFs in test [1] of 3 fold.

B1: oxidized recombinant NPGPx (19-187) (natural protein, human, UniProt Q96SL4 19-187, looked up)
chain: AQQEQDFYDFKAVNIRGKLVSLEKYRGSVSLVVNVASECGFTDQHYRALQQLQRDLGPHHFNVLAFPCNQFGQQEPDSNKEIESFARRTYSVSFPMFSKIAVTGTGAHPAFKYLAQTSGKEPTWNFWKYLVAPDGKVVGAWDPTVSVEEVRPQITALVRKLILLKREDL
modifications: single disulfide bond between Cys57 and Cys86
For B1, the binding result in test [2] and in test [3] was “binds” each time.
